# The supplement of paper PMC7877785
# ± gives the uncertainty stated by the source.
# Assay: self-splicing fitness, log relative to wild type (ln ratio); higher = more splicing; Tetrahymena group I intron in knt gene, E. coli kanamycin selection, DiMSum; sequences stand for … in CUCUCU…GGAGGGAAAAGUUAUCAGGCAUGCACCUGGUAGCUAGUCUUUAAACCAAUAGAUUGCAUCGGUUUAAAAGGCAAGACCGUCAAAUUGCGGGAAAGGGGUCAACAGCCGUUCAGUACCAAGUCUCAGGGGAAACUUUGAGAUGGCCUUGCAAAGGGUAUGGUAAUAAGCUGACGGACAUGGUCCUAACCACGCAGCCAAGUCCUAAGUCAACAGAUCUUCUGUUGAUAUGGAUGCAGUUCACAGACUAAAUGUCGGUCGGGGAAGAUGUAUUCUUCUCAUAAGAUAUAGUCGGACCUCUCCUUAAUGGGAGCUAGCGGAUGAAGUGAUGCAACACUGGAGCCGCUGGGAACUAAUUUGUAUGCGAAAGUAUAUUGAUUAGUUUUGGAGUACUCGUGGUCG
# In short: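 Six replicate transformations of E. coli BL21(DE3) with a pET-22b(+) library were grown overnight at 37°C or 30°C. The library randomised all eight P1ex-region intron nucleotides, the intron lying in the knt kanamycin-resistance gene, and plates were LB agar with or without 25 μg/mL kanamycin plus 100 μg/mL carbenicillin, 50 μM IPTG and 0.2% rhamnose. Pooled colonies were amplicon-sequenced on an Illumina HiSeq 2500, and fitness is the DiMSum error-weighted combination of wild-type-normalised replicate fold changes, kanamycin versus none.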
Sequence,self-splicing fitness (ln) (30 °C),self-splicing fitness (ln) (37 °C)
AAAUAGCAAUAUUACGGUCC,-1.33 ± 0.12,-0.378 ± 0.19
AAAUAGCAAUAUUACGGUGG,-3.94 ± 0.21,-2.68 ± 0.17
AAAUAGCAAUAUUACGUCAU,-2.45 ± 0.08,-1.51 ± 0.11
AAAUAGCAAUAUUACGUCCA,-0.829 ± 0.084,-0.327 ± 0.1
AAAUAGCAAUAUUACGUCGG,-2.54 ± 0.14,-1.14 ± 0.13
AAAUAGCAAUAUUACGUCGU,-2.69 ± 0.17,-1.55 ± 0.16
AAAUAGCAAUAUUACGUCUC,-2.14 ± 0.11,-1.15 ± 0.14
AAAUAGCAAUAUUACGUGAU,-2.26 ± 0.099,-1.89 ± 0.11
AAAUAGCAAUAUUACGUGGG,-3.39 ± 0.2,-2.49 ± 0.2
AAAUAGCAAUAUUACGUUAG,-4.15 ± 0.42,-3.24 ± 0.3
AAAUAGCAAUAUUACGUUCA,-0.751 ± 0.094,0.187 ± 0.12
AAAUAGCAAUAUUACGUUCC,-2.08 ± 0.16,-1.1 ± 0.19
AACAAGCAAUAUUACGAAAU,-3.53 ± 0.13,-1.4 ± 0.095
AACAAGCAAUAUUACGAGUG,-0.911 ± 0.049,-0.0361 ± 0.07
AACAAGCAAUAUUACGAUGG,-3.11 ± 0.094,-1.72 ± 0.079
AACAAGCAAUAUUACGAUUA,-0.823 ± 0.066,-0.696 ± 0.071
AACAAGCAAUAUUACGAUUG,-4.48 ± 0.21,-1.54 ± 0.13
AACAAGCAAUAUUACGCAGU,-3.43 ± 0.19,-1.93 ± 0.16
AACAAGCAAUAUUACGCCAC,-3.71 ± 0.4,-2.83 ± 0.47
AACAAGCAAUAUUACGCCCC,-0.645 ± 0.24,0.323 ± 0.26
AACAAGCAAUAUUACGCGUC,-3.84 ± 0.2,-2.66 ± 0.15
AACAAGCAAUAUUACGCUUG,-2.82 ± 0.12,-2.28 ± 0.16
AACAAGCAAUAUUACGGAGA,-3.58 ± 0.23,-3.19 ± 0.24
AACAAGCAAUAUUACGGCGA,-0.0322 ± 0.064,-0.329 ± 0.071
AACAAGCAAUAUUACGGCUA,-0.414 ± 0.067,0.274 ± 0.092
AACAAGCAAUAUUACGGGCG,-0.896 ± 0.075,-1.08 ± 0.089

Sequence,self-splicing fitness (ln) (30 °C),self-splicing fitness (ln) (37 °C)
AACAAGCAAUAUUACGGGUA,-0.841 ± 0.063,-0.307 ± 0.071
AACAAGCAAUAUUACGUAAC,-3.29 ± 0.12,-2.33 ± 0.17
AACAAGCAAUAUUACGUAGG,-2.76 ± 0.086,-1.57 ± 0.1
AACAAGCAAUAUUACGUCCG,-1.26 ± 0.067,-0.444 ± 0.085
AACAAGCAAUAUUACGUGAC,-2.94 ± 0.095,-2.34 ± 0.12
AACCAGCAAUAUUACGAAAU,-1.08 ± 0.058,-0.397 ± 0.074
AACCAGCAAUAUUACGAAUC,-1.65 ± 0.094,-0.882 ± 0.1
AACCAGCAAUAUUACGACAU,-0.243 ± 0.01,0.152 ± 0.031
AACCAGCAAUAUUACGACCA,-0.702 ± 0.082,0.122 ± 0.11
AACCAGCAAUAUUACGACGA,-0.496 ± 0.076,-0.38 ± 0.071
AACCAGCAAUAUUACGAUCG,-0.866 ± 0.084,-0.752 ± 0.099
AACCAGCAAUAUUACGAUCU,-0.425 ± 0.052,0.391 ± 0.074
AACCAGCAAUAUUACGAUGC,-1.49 ± 0.076,-0.673 ± 0.082
AACCAGCAAUAUUACGAUGG,-2.91 ± 0.11,-2.76 ± 0.14
AACCAGCAAUAUUACGCGAU,-3.69 ± 0.19,-1.77 ± 0.15
AACCAGCAAUAUUACGCGCU,-2.01 ± 0.13,-0.894 ± 0.13
AACCAGCAAUAUUACGCGGG,-4.5 ± 0.24,-3.16 ± 0.24
AACCAGCAAUAUUACGGCGG,-0.585 ± 0.059,-0.164 ± 0.078
AACCAGCAAUAUUACGGCUU,-0.621 ± 0.056,0.209 ± 0.082
AACCAGCAAUAUUACGGUUC,-3.75 ± 0.14,-2.43 ± 0.17
AACCAGCAAUAUUACGUACA,-1.08 ± 0.08,-0.429 ± 0.11
AACCAGCAAUAUUACGUAGU,-1.99 ± 0.06,-1.42 ± 0.071
AACCAGCAAUAUUACGUAUU,-1.79 ± 0.072,-0.754 ± 0.08
AACCAGCAAUAUUACGUCCG,-1.56 ± 0.073,-0.0163 ± 0.091
AACCAGCAAUAUUACGUUAA,-1.83 ± 0.086,-1.26 ± 0.085
AACCAGCAAUAUUACGUUCG,-2.59 ± 0.15,-1.63 ± 0.13

Sequence,self-splicing fitness (ln) (30 °C),self-splicing fitness (ln) (37 °C)
AACCAGCAAUAUUACGUUUG,-2.83 ± 0.077,-2.31 ± 0.1
AACGAGCAAUAUUACGAAUA,–,-1.63 ± 0.34
AACGAGCAAUAUUACGACGG,-4.27 ± 0.37,-2.04 ± 0.23
AACGAGCAAUAUUACGAUAG,-3.04 ± 0.22,-2.49 ± 0.22
AACGAGCAAUAUUACGAUGU,-2.35 ± 0.2,-1.99 ± 0.17
AACGAGCAAUAUUACGCACA,-2.86 ± 0.23,-2.09 ± 0.21
AACGAGCAAUAUUACGCGUU,-4.34 ± 0.2,-2.42 ± 0.14
AACGAGCAAUAUUACGCUCG,-2.55 ± 0.35,–
AACGAGCAAUAUUACGCUGG,-3.72 ± 0.31,-0.45 ± 0.16
AACGAGCAAUAUUACGGAAC,-2.26 ± 0.23,–
AACGAGCAAUAUUACGGAAU,-2.84 ± 0.24,-1.81 ± 0.22
AACGAGCAAUAUUACGGACC,-2.49 ± 0.15,-1.55 ± 0.22
AACGAGCAAUAUUACGGAGG,-2.79 ± 0.19,-2.38 ± 0.27
AACGAGCAAUAUUACGGAUG,-3.34 ± 0.31,–
AACGAGCAAUAUUACGGCGA,-1.95 ± 0.23,-0.978 ± 0.2
AACGAGCAAUAUUACGGGAA,-2.18 ± 0.22,-2.74 ± 0.27
AACGAGCAAUAUUACGGGGG,-3.29 ± 0.26,-3.01 ± 0.37
AACGAGCAAUAUUACGGUGG,-3.68 ± 0.32,-2.05 ± 0.34
AACGAGCAAUAUUACGUACG,-4.19 ± 0.46,-1.63 ± 0.35
AACGAGCAAUAUUACGUCCU,-1.04 ± 0.079,-0.143 ± 0.095
AACGAGCAAUAUUACGUCGU,-2.5 ± 0.23,-2.9 ± 0.31
AACGAGCAAUAUUACGUGCA,-2.58 ± 0.13,-2.01 ± 0.18
AACGAGCAAUAUUACGUUAU,-3.69 ± 0.16,-1.52 ± 0.11
AACUAGCAAUAUUACGAAUG,-2.36 ± 0.11,-1.69 ± 0.12
